Laboratory results published in article PMC3416860, “TC10 Is Regulated by Caveolin in 3T3-L1 Adipocytes” (PLoS ONE, 2012).

Assays:
[1] = target: myc-Caveolin 1 wild-type (pKMyc-Caveolin 1) (UniProt Q03135); test: co-IP; COS-1 cells co-transfected with myc-Caveolin 1 and HA-TC10 plasmids; lysed in HNTG buffer (50 mM HEPES pH 7.4, 150 mM NaCl, 10% glycerol, 1% Triton X-100); immunoprecipitated with anti-myc antibodies and Protein A/G beads, blotted for HA
GST-TC10 [2] = target: T1, GST-TC10 (Homo sapiens, UniProt P17081); test: radioligand binding to GST-fusion on glutathione-agarose; conditions: 10 mM MgCl2, pH 7.5, room temperature, labelled compound
T1 construct: gene RHOQ; GST fusion (GST kept), expressed in E. coli Rosetta-gami (DE3), glutathione-agarose purified; plasmid from I. Macara

GST-TC10 [3] = target: T2, GST-TC10 (human, UniProt P17081 1-205); test: pull-down; GST-TC10 on glutathione-agarose beads, preincubated with nucleotides as indicated (GDP or a nonhydrolyzable GTP analog), used to precipitate proteins from a 3T3-L1 adipocyte lysate; blot with anti-Caveolin antibodies; conditions: one partner purified
T2 construct: TC10 (RhoQ); Expression plasmid obtained from Dr. Ian Macara; Used as purified (with endogenous GDP) or preincubated with GDP or a nonhydrolyzable GTP analog; also called TC10-GDP; source: E. coli Rosetta-gami (DE3), purified (glutathione-agarose)

GST-TC10 [4] = target: T2, GST-TC10; test: pull-down; purified MBP-Caveolin 1(1-99) and GST-TC10 incubated with GDP overnight at 4 C; glutathione agarose 1 h, washed, eluted in SDS sample buffer; blots with anti-GST or anti-MBP; conditions: both partners purified

T2 sequence (P17081 whole entry): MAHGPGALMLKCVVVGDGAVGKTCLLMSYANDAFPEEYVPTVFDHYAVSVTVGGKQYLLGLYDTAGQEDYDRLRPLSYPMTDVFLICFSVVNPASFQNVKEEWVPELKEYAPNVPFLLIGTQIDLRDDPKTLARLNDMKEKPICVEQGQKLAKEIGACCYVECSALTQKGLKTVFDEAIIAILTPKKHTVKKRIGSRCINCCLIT
T1 sequence (P17081 whole entry, the tested form may be a part): as the sequence (P17081 whole entry) above

HA-TC10 Y37A/Y46A (pKH3-TC10 Y37A/Y46A) (natural protein)
percent decrease of co-immunoprecipitation against wild-type TC10 [1]: > 75%

HA-TC10 T31N (pKH3-TC10 T31N), dominant-interfering mutant (natural protein)
fold interaction against the constitutively active allele (Q75L) [1]: > 10 fold

Nc1nc2c(ncn2[C@@H]2O[C@H](COP(=O)(O)OP(=O)(O)OP(O)(O)=S)[C@@H](O)[C@H]2O)c(=O)[nH]1 [GTPγS]
radioligand binding to GST-fusion on glutathione-agarose (GST-TC10 [2]): incubated radiolabeled GTPγS with recombinant GST, GST-TC10 or GST-Cdc42

B1: Caveolin 1, endogenous in 3T3-L1 adipocytes (natural protein, mouse (endogenous in 3T3-L1), UniProt P49817 1-178, looked up)
chain: MSGGKYVDSEGHLYTVPIREQGNIYKPNNKAMADEVTEKQVYDAHTKEIDLVNRDPKHLNDDVVKIDFEDVIAEPEGTHSFDGIWKASFTTFTVTKYWFYRLLSTIFGIPMALIWGIYFAILSFLHIWAVVPCIKSFLIEIQCISRVYSIYVHTFCDPLFEAIGKIFSNIRISTQKEI
notes: Caveolin 1, endogenous, detected with anti-Caveolin antibodies; source: endogenous, 3T3-L1 adipocyte lysate
fold enhancement of the interaction after GDP binding (GST-TC10 [3]): ~2 fold

B2: MBP-Caveolin 1(1-99) (domain or fragment, UniProt Q03135 1-99, looked up)
chain: MSGGKYVDSEGHLYTVPIREQGNIYKPNNKAMADELSEKQVYDAHTKEIDLVNRDPKHLNDDVVKIDFEDVIAEPEGTHSFDGIWKASFTTFTVTKYWF
notes: Caveolin 1, the first 99 amino acids; The vector may add further tags and a TEV site; source: E. coli Rosetta-gami (DE3), purified (amylose resin)
fold precipitated with TC10-GDP against GTP analog bound TC10 (GST-TC10 [4]): > 4 fold
